Data set [1] addresses T1, ERH-2 (Caenorhabditis elegans, UniProt Q20057).
T1 sequence (Q20057 1-113): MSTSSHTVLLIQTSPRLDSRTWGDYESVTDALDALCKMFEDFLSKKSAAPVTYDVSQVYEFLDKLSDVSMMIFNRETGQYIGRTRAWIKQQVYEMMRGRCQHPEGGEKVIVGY
Put plainly: Isothermal titration calorimetry, binding to ERH-2. The arrangement: species or system C. elegans. The conditions noted are these: ITC, 20 μM ERH-2 in cell, 431 μM TOST-1^FL in syringe; N fixed at 1, not fitted. For orientation: Isothermal titration calorimetry measures the heat released or taken up as one component is titrated into another.

The next data set has as its target T2, ERH-2:PID-3^pep 1:2 (Caenorhabditis elegans, UniProt O76616+Q20057).
T2 sequence (Q20057 1-113): T1 sequence (Q20057 1-113)
T2 sequence (O76616 171-203 partner limits assumed): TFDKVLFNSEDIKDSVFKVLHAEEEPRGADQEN
Put plainly: Isothermal titration calorimetry, binding to ERH-2:PID-3^pep 1:2. The arrangement: species or system C. elegans. The conditions noted are these: ITC, 25°C, 50 mM Tris, 250 mM NaCl, 1 mM TCEP, pH 7.50; 20 μM ERH-2:40 μM PID-3^pep in cell, 431 μM TOST-1^FL in syringe; average and SD of two or three measurements.

The target of data set [2] is T1, ERH-2. Put plainly: NMR-monitored titration of 15N-labeled ERH-2. The class given is binding, C. elegans. The conditions noted are these: TOST-1^FL added to 15N-labeled ERH-2, 25°C.
The subject of data set [3] is ERH-2. Put plainly: Streptavidin pull-down, TOST-1/PID-1 mVenus-Strep bait with ERH-2. The conditions noted are these: TOST-1 or PID-1 mVenus-Strep bait 10-20 μM, prey 1.2-fold molar excess, 4°C. In kind it is binding, C. elegans.
The target of another data set is T3, ERH-1 (Caenorhabditis elegans, UniProt Q22640).
T3 sequence (Q22640 1-103): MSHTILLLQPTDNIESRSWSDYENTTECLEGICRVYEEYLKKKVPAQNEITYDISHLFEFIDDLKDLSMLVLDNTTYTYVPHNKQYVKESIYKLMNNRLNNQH
Put plainly: Streptavidin pull-down, TOST-1/PID-1 mVenus-Strep bait with ERH-1. In kind it is binding, C. elegans. The conditions noted are these: TOST-1 or PID-1 mVenus-Strep bait 10-20 μM, prey 1.2-fold molar excess, 4°C.

The test system of the next data set is ERH-2/PID-3. Put plainly: SEC assay, ERH-2/TOST-1/PID-3 complex. The conditions noted are these: full-length ERH-2, TOST-1 and PID-3, 1:1 ratio. The class given is binding, C. elegans.
Data set [4] concerns ERH-2 alone, ERH-2/PID-3 subcomplex, full PETISCO. Put plainly: Streptavidin pull-down, TOST-1-mVenus-Strep with ERH-2, ERH-2/PID-3 or PETISCO. The class given is binding, C. elegans. The conditions noted are these: TOST-1-mVenus-Strep as bait.
The nature of data set [5]: SEC-MALS, molecular mass and oligomeric state. The class given is physicochemical, C. elegans.
The subject of data set [6] is ERH-2. In kind it is binding, C. elegans.
The next data set has as its system PID-3/TOFU-6 interaction. In kind it is binding, C. elegans.
In another data set the test system is TOFU-6^RRM. Put plainly: SEC assay, TOFU-6^RRM with PID-3^RRM. The class given is binding, C. elegans. The conditions noted are these: 1:1.5 molar ratio, Superdex 200 Increase 10/300.
The test system of data set [7] is Cy5-labeled 16-mer oligo(U) RNA. Put plainly: Fluorescence anisotropy RNA binding, Cy5-U16. The conditions noted are these: 100 nM Cy5-U16 RNA, pH 7.5, 15°C.
Data set [8] has as its system FITC-labeled 28-mer RNA based on the 21U-3372 precursor. Put plainly: Fluorescence anisotropy RNA binding, FITC-28-mer pre-piRNA. Details: species or system C. elegans. The conditions noted are these: 100 nM FITC-28-mer RNA, pH 7.5, 15°C.

Entries after “also recorded” stand apart in the source; their conditions may differ. Marks after values point to notes of the source that are not given here.

B1: TOST-1^FL: full-length TOST-1 (protein)
chain: MTTAIQYQVIPLADREHSNKVASILENKYKTATNKRITLNERFGVLEKGYTIQATEPETVKNDSDVFFVVHDRNLNSKKEFVENYLAKNPIVNSPEKVFEEEDKENAPTKKAVLKPSSTDEKKLTSSDIYIQEITRSILQSV
modifications: left off: His6, N-terminal, state not stated | Trx, N-terminal, state not stated
Take B1: the “N (stoichiometry)” value with ERH-2 [1] is listed as 1^c. For the same molecule, in the data set with ERH-2:PID-3^pep 1:2, binding was characterised by a dissociation constant (Kd) of 15 ± 2 µM. In addition, in the data set with ERH-2 [2], the “amide CSPs of full-length protein vs peptide” value is “very similar amide CSPs”. In addition, the “binding to ERH-2 in streptavidin pull-down” value with ERH-2 [3] was “Both PID-1 and TOST-1 bound ERH-2; also recorded: more efficient bait than PID-1”. Also, the “binding to ERH-1 in streptavidin pull-down” value with ERH-1 is recorded as “interacted with ERH-1; also recorded: more efficient bait than PID-1”. Moreover, the “trimeric complex formation by SEC” value with ERH-2/PID-3 is given as “elutes at smaller elution volumes than the dimeric subcomplexes”. Further, the “pull-down of ERH-2 alone, with PID-3 or within PETISCO” value in data set [4] is “pulled down ERH-2 in all conditions; also recorded: more ERH-2 is pulled down when ERH-2 is in complex with PID-3 or as part of PETISCO”.

B2: PID-3^RRM: PID-3 RRM domain, residues 196–274 (protein)
chain: PRGADQENMLKISGYPGMLNTFGIAQLLTPYRVNGITITGAQSAVVALENKFQVYQAVQDFNGKKLDRNHKLQVSSLVV
modifications: left off: His6, N-terminal, state not stated | GST, N-terminal, state not stated
For B2, in data set [5], the oligomeric state result is on record as “homodimers”. In addition, the “binding to ERH-2 in GST pull-down” value in the data set on ERH-2 [6] is reported as “failed to bind ERH-2”. In addition, the “PID-3/TOFU-6 interaction in pull-down” value with PID-3/TOFU-6 interaction was “the RRM domains of PID-3 and TOFU-6 mediate the interaction between the two proteins”. Further, the “PID-3^RRM/TOFU-6^RRM interaction by SEC” value in the data set on TOFU-6^RRM is “This is supported by SEC”. In addition, the “relative RNA binding affinity” value in data set [7] and in [8] was “lowest binding affinity” throughout.

The record behind these values is paper PMC8415317 (Genes & Development, 2021).
